Where no end group is shown, it is not given here.
Assays:
[1] = biological target: norovirus GII.3 TCH strain virus-like particle (VLP) (norovirus GII.3 TCH strain); assay: BLI (BLItz), biotinylated peptide on SA chip, VLP in solution
[2] = biological target: norovirus GII.17 Saitama strain virus-like particle (VLP) (norovirus GII.17 Saitama strain); assay: as above

Binder	Kd [1]	koff [1]	kon [1]	Kd [2]	koff [2]	kon [2]
NFRVPIRFTH (also: biotinylated, residue not given here, spacer sequence added, letters and position not given here) [norovirus-binding peptide of SEQ ID NO: 131]	157 µM	0.262 s⁻¹	1660 M⁻¹ s⁻¹			
YRRSKSEIFV (also: biotinylated, residue not given here, spacer sequence added, letters and position not given here) [norovirus-binding peptide of SEQ ID NO: 59]	0.00887 µM	0.00714 s⁻¹	805000 M⁻¹ s⁻¹	0.383 µM	0.0511 s⁻¹	134000 M⁻¹ s⁻¹
VVGFGRRSLF (also: biotinylated, residue not given here, spacer sequence added, letters and position not given here) [norovirus-binding peptide of SEQ ID NO: 156]	1.06 µM	0.0713 s⁻¹	67300 M⁻¹ s⁻¹	234 µM	0.0931 s⁻¹	398 M⁻¹ s⁻¹
ICSSWFPSVH (also: biotinylated, residue not given here, spacer sequence added, letters and position not given here) [norovirus-binding peptide of SEQ ID NO: 48]	0.0303 µM	0.0246 s⁻¹	810000 M⁻¹ s⁻¹	0.0766 µM	0.0978 s⁻¹	1.28e+06 M⁻¹ s⁻¹
KYRATICHTV (also: biotinylated, residue not given here, spacer sequence added, letters and position not given here) [norovirus-binding peptide of SEQ ID NO: 52]	0.0138 µM	0.0103 s⁻¹	747000 M⁻¹ s⁻¹	0.0179 µM	0.0232 s⁻¹	1.29e+06 M⁻¹ s⁻¹
VCVDNDISMS (also: biotinylated, residue not given here, spacer sequence added, letters and position not given here) [norovirus-binding peptide of SEQ ID NO: 150]	0.437 µM	0.0118 s⁻¹	27000 M⁻¹ s⁻¹	2510 µM	0.255 s⁻¹	
SVMVTRSLFG (also: biotinylated, residue not given here, spacer sequence added, letters and position not given here) [norovirus-binding peptide of SEQ ID NO: 163]	0.00766 µM	0.00786 s⁻¹	1.03e+06 M⁻¹ s⁻¹	0.168 µM	0.0185 s⁻¹	110000 M⁻¹ s⁻¹
YVVASKSNRL (also: biotinylated, residue not given here, spacer sequence added, letters and position not given here) [norovirus-binding peptide of SEQ ID NO: 143]	0.0135 µM	0.0044 s⁻¹	325000 M⁻¹ s⁻¹			
VELFLLTSSC (also: biotinylated, residue not given here, spacer sequence added, letters and position not given here) [norovirus-binding peptide of SEQ ID NO: 155]	803 µM	0.0926 s⁻¹	115 M⁻¹ s⁻¹			
ECMGRRWMSS (also: biotinylated, residue not given here, spacer sequence added, letters and position not given here) [norovirus-binding peptide of SEQ ID NO: 154]	0.123 µM	0.0173 s⁻¹	141000 M⁻¹ s⁻¹			
YVIRNSDRHN (also: biotinylated, residue not given here, spacer sequence added, letters and position not given here) [norovirus-binding peptide of SEQ ID NO: 43]	0.0672 µM	0.0793 s⁻¹	1.18e+06 M⁻¹ s⁻¹	234 µM	0.192 s⁻¹	822 M⁻¹ s⁻¹
GCVGDLYCSA (cysteine pairing not given here; also: biotinylated, residue not given here, spacer sequence added, letters and position not given here) [norovirus-binding peptide of SEQ ID NO: 172]	69.3 µM	0.0131 s⁻¹	189 M⁻¹ s⁻¹			
